Abundance fitness data for 47 variants are collected here from the Human Domainome abundance scans (Beltran et al. 2025).

Sequences and labels used below:
B1: Zinc finger homeobox protein 3, residues 2643 to 2698; numbered along this chain, Q15911 (parent)
chain: RLRTTITPEQLEILYQKYLLDSNPTRKMLDHIAHEVGLKKRVVQVWFQNTRARERK

± gives the uncertainty stated by the source.

In the data set the parent is B1. Description: abundance fitness (aPCA) (normalised: wild type 0, dead -1); higher = more abundant; growth selection in yeast, the domain comes from the species named. As to conditions: Homo sapiens.
Turning to RLRTTITPEQLEILYQKYLLDSNPTRKMLDHIAHEVGLKKRVVQVWFQNTIARERK [R51I], the abundance fitness is -0.286 ± 0.16.
As to RLRTTITPEQLEILYQKYLLDSNPTRKMLDHIAHEVGLKKRVVQVWFQNTVARERK [R51V], the abundance fitness was -0.155 ± 0.076.
For RLRTTITPEQLEILYQKYLLDSNPTRKMLDHIAHEVGLKKRVVQVWFQNTCARERK [R51C], the abundance fitness was -0.044 ± 0.11.
The result for RLRTTITPEQLEILYQKYLLDSNPTRKMLDHIAHEVGLKKRVVQVWFQNTWARERK [R51W] reads -0.135 ± 0.11.
The result for RLRTTITPEQLEILYQKYLLDSNPTRKMLDHIAHEVGLKKRVVQVWFQNTMARERK [R51M] reads 0.098 ± 0.11.
The result for RLRTTITPEQLEILYQKYLLDSNPTRKMLDHIAHEVGLKKRVVQVWFQNTSARERK [R51S] reads 0.024 ± 0.093.
Take RLRTTITPEQLEILYQKYLLDSNPTRKMLDHIAHEVGLKKRVVQVWFQNTAARERK [R51A]: the abundance fitness is 0.13 ± 0.076.
Consider RLRTTITPEQLEILYQKYLLDSNPTRKMLDHIAHEVGLKKRVVQVWFQNTEARERK [R51E], for which the abundance fitness is -0.163 ± 0.1.
Take RLRTTITPEQLEILYQKYLLDSNPTRKMLDHIAHEVGLKKRVVQVWFQNTDARERK [R51D]: the abundance fitness is -0.474 ± 0.14.
Next, RLRTTITPEQLEILYQKYLLDSNPTRKMLDHIAHEVGLKKRVVQVWFQNTKARERK [R51K]: 0.112 ± 0.11; RLRTTITPEQLEILYQKYLLDSNPTRKMLDHIAHEVGLKKRVVQVWFQNTLARERK [R51L]: 0.056 ± 0.1.
Next, RLRTTITPEQLEILYQKYLLDSNPTRKMLDHIAHEVGLKKRVVQVWFQNTQARERK [R51Q]: 0.229 ± 0.12; RLRTTITPEQLEILYQKYLLDSNPTRKMLDHIAHEVGLKKRVVQVWFQNTPARERK [R51P]: -0.812 ± 0.14; RLRTTITPEQLEILYQKYLLDSNPTRKMLDHIAHEVGLKKRVVQVWFQNTTARERK [R51T]: -0.305 ± 0.16.
Next, RLRTTITPEQLEILYQKYLLDSNPTRKMLDHIAHEVGLKKRVVQVWFQNTHARERK [R51H]: 0.164 ± 0.19; RLRTTITPEQLEILYQKYLLDSNPTRKMLDHIAHEVGLKKRVVQVWFQGTRARERK [N49G]: -0.234 ± 0.078; RLRTTITPEQLEILYQKYLLDSNPTRKMLDHIAHEVGLKKRVVQVWFQHTRARERK [N49H]: -0.412 ± 0.24.
For RLRTTITPEQLEILYQKYLLDSNPTRKMLDHIAHEVGLKKRVVQVWFQCTRARERK [N49C], the abundance fitness was -0.496 ± 0.12.
Next, RLRTTITPEQLEILYQKYLLDSNPTRKMLDHIAHEVGLKKRVVQVWFQFTRARERK [N49F]: -0.531 ± 0.18; RLRTTITPEQLEILYQKYLLDSNPTRKMLDHIAHEVGLKKRVVQVWFQWTRARERK [N49W]: -0.68 ± 0.12.
The result for RLRTTITPEQLEILYQKYLLDSNPTRKMLDHIAHEVGLKKRVVQVWFQTTRARERK [N49T] reads 0.04 ± 0.12; that for RLRTTITPEQLEILYQKYLLDSNPTRKMLDHIAHEVGLKKRVVQVWFQMTRARERK [N49M], -0.331 ± 0.15; that for RLRTTITPEQLEILYQKYLLDSNPTRKMLDHIAHEVGLKKRVVQVWFQATRARERK [N49A], -0.2 ± 0.093.
Next, RLRTTITPEQLEILYQKYLLDSNPTRKMLDHIAHEVGLKKRVVQVWFQVTRARERK [N49V]: -0.229 ± 0.093.
Regarding RLRTTITPEQLEILYQKYLLDSNPTRKMLDHIAHEVGLKKRVVQVWFQPTRARERK [N49P], the abundance fitness is -0.778 ± 0.17.
Next, RLRTTITPEQLEILYQKYLLDSNPTRKMLDHIAHEVGLKKRVVQVWFQRTRARERK [N49R]: -0.267 ± 0.082.
The result for RLRTTITPEQLEILYQKYLLDSNPTRKMLDHIAHEVGLKKRVVQVWFQETRARERK [N49E] reads 0.406 ± 0.11.
Next, RLRTTITPEQLEILYQKYLLDSNPTRKMLDHIAHEVGLKKRVVQVWFQITRARERK [N49I]: -0.267 ± 0.17; RLRTTITPEQLEILYQKYLLDSNPTRKMLDHIAHEVGLKKRVVQVWFQSTRARERK [N49S]: -0.029 ± 0.089; RLRTTITPEQLEILYQKYLLDSNPTRKMLDHIAHEVGLKKRVVQVWFQLTRARERK [N49L]: -0.334 ± 0.099.
Regarding RLRTTITPEQLEILYQKYLLDSNPTRKMLDHIAHEVGLKKRVVQVWFQQTRARERK [N49Q], the abundance fitness is -0.168 ± 0.14.
Next, RLRTTITPEQLEILYQKYLLDSNPTRKMLDHIAHEVGLKKRVVQVWFQKTRARERK [N49K]: 0.011 ± 0.12.
The result for RLRTTITPEQLEILYQKYLLDSNPTRKMLDHIAHEVGLKKRVVQVWFQDTRARERK [N49D] reads 0.172 ± 0.15.
RLRTTITPEQLEILYQKYLLDSNPTRKMLDHIAHEVGLKKRVVQVWFQNRRARERK [T50R]: the abundance fitness is -0.037 ± 0.072.
On to RLRTTITPEQLEILYQKYLLDSNPTRKMLDHIAHEVGLKKRVVQVWFQNIRARERK [T50I], for which the abundance fitness was -0.247 ± 0.11.
Next, RLRTTITPEQLEILYQKYLLDSNPTRKMLDHIAHEVGLKKRVVQVWFQNCRARERK [T50C]: -0.078 ± 0.11; RLRTTITPEQLEILYQKYLLDSNPTRKMLDHIAHEVGLKKRVVQVWFQNGRARERK [T50G]: -0.549 ± 0.073; RLRTTITPEQLEILYQKYLLDSNPTRKMLDHIAHEVGLKKRVVQVWFQNFRARERK [T50F]: -0.322 ± 0.19.
Next, RLRTTITPEQLEILYQKYLLDSNPTRKMLDHIAHEVGLKKRVVQVWFQNQRARERK [T50Q]: 0.243 ± 0.12; RLRTTITPEQLEILYQKYLLDSNPTRKMLDHIAHEVGLKKRVVQVWFQNSRARERK [T50S]: -0.202 ± 0.094.
As to RLRTTITPEQLEILYQKYLLDSNPTRKMLDHIAHEVGLKKRVVQVWFQNPRARERK [T50P], the abundance fitness was -0.6 ± 0.12.
The result for RLRTTITPEQLEILYQKYLLDSNPTRKMLDHIAHEVGLKKRVVQVWFQNWRARERK [T50W] reads -0.156 ± 0.091.
As to RLRTTITPEQLEILYQKYLLDSNPTRKMLDHIAHEVGLKKRVVQVWFQNYRARERK [T50Y], the abundance fitness is -0.048 ± 0.15.
The result for RLRTTITPEQLEILYQKYLLDSNPTRKMLDHIAHEVGLKKRVVQVWFQNLRARERK [T50L] reads -0.177 ± 0.09; that for RLRTTITPEQLEILYQKYLLDSNPTRKMLDHIAHEVGLKKRVVQVWFQNERARERK [T50E], 0.342 ± 0.11; that for RLRTTITPEQLEILYQKYLLDSNPTRKMLDHIAHEVGLKKRVVQVWFQNDRARERK [T50D], -0.731 ± 0.15.
Turning to RLRTTITPEQLEILYQKYLLDSNPTRKMLDHIAHEVGLKKRVVQVWFQNNRARERK [T50N], the abundance fitness is -0.572 ± 0.36.
